Here are results for two compounds from article PMC5444726, “A CD44-specific peptide, RP-1, exhibits capacities of assisting diagnosis and predicting prognosis of gastric cancer” (Oncotarget, 2017).

In data set [1] the test system is CD44 on MKN-28-CD44-ox cells. Put plainly: Confocal immunofluorescence of peptide binding to CD44-overexpressing MKN-28 cells. The class given is cell-based, human. The settings on record: 100 μM Alexa Fluor 594 labeled peptide, 20 min, fixed cells, confocal microscopy. Here is the method:
Plasmids containing cDNA of CD44 protein were synthesized by GENECHEM, Shanghai, China. Using Pfu polymerase and two oligonucleotides ([…] and […]), the CD44 cDNA was cloned into Xhol and ECOR1 sites of GV146 (GENECHEM, Shanghai, China) by recombinant PCR. Then, CD44-negative MNK-28 cells were transfected with the plasmid with Lipofectamine 2000 reagent (Invitrogen, California, USA), and then the efficiency of CD44 expression in MKN-28 cells was tested. Finally, two cell lines were generated as following: MKN-28-con with no CD44 expression and MKN-28-CD44-ox with CD44 overexpression labeled with enhanced green fluorescent protein (EGFP).
For the preparation of confocal laser microscopy, the transfected MNK-28 cancer cells were washed with phosphate buffer saline (PBS) three times, then fixed with 4% paraformaldehyde at ambient temperature for 30 min, and blocked with 5% BSA (w/v) in PBS at 37°C for 1 h. The blocked cells were sequentially incubated with 100 μM RP-1 or WYP labeled with Alexa Fluor 594 for 20 min, and counterstained with 4,6-diamidino-2-phenylindole (DAPI). […] For the evaluation of the correlation of fluorescent intensities between CD44-EGFP and RP-1-Fluor 594, a semi-quantitative analysis was performed with ImageJ 1.48v software (National Institutes of Health, Maryland, USA) by randomly selecting and observing 10 fields of vision. […]

Another data set deals with SGC-7901 tumor tissue. Briefly: Fluorescence microscopy of frozen xenograft sections after injection. The settings on record: 3 h after i.v. injection of peptide. The class given is in vivo, athymic nude mice. Here is the method: Once fluorescence signal reached its peak at the site of tumor, subcutaneous tumor tissues were harvested for further experiment. After shock-frozen with liquid nitrogen, tumor tissues were cut into 5 μm sections and fixed in 4% paraformaldehyde at ambient temperature for 30 min. The coverslips were mounted with glycerol–gelatin containing anti-fading buffer (Bioworld, Minnesota, USA). Finally, the fluorescence images of frozen sections were captured with a fluorescent microscope (Nikon-Eclipse, Tokyo, Japan)

Data set [2] concerns SGC-7901 cells. Briefly: Binding affinity to gastric cancer cells (fluorescence saturation). The arrangement: species or system human. The settings on record: FITC-labeled peptide, 0 to 2.5 μM at 0.25 μM intervals, serum-free RPMI 1640, ambient temperature, 15 min, microplate reader; least squares fit, R^2 = 0.98; read-out: equilibrium dissociation constant (Kd). The protocol: 5 × 10^5 SGC-7901 cells were inoculated into each well of a multi-well plate 24h before measurement. Both FITC- RP-1 and FITC-WYP peptide were serially diluted with RPMI 1640 culture medium containing no serum at concentrations ranged from 0 to 2.5 μM at 0.25 μM intervals, and incubated with SGC-7901 cells at ambient temperature for 15 min [40]. After washing twice with pre-cold PBS/0.2% Tween-20 solution, the unbound peptide was rinsed off, and cells were subsequently fixed in 4% paraformaldehyde at ambient temperature for 20 min. […] The equilibrium dissociation constant (Kd) was calculated using a least squares fit of the data with Origin 8.0 software (OriginLab, Massachusetts, USA). I was calculated using the Michaelis-Menten equation I = Imax([X])/(Kd+[X]), in which Imax was the maximum fluorescent intensity corresponding to peptide binding at saturation, which was calculated from the plots; I was the fluorescent intensity measured above; [X] was the concentration of total peptides and estimated to be the concentration of unbound peptide.

Another data set deals with MKN-28 cells. The data set is classed as cell-based, human. The settings on record: 200 µM.
Data set [3] relates to SGC-7901 cells. The data set is classed as cell-based, human. The following applies: 200 µM.
The subject of a further data set is BGC-823 cells. The data set is classed as cell-based, human. The settings on record: 200 µM.
The test system of data set [4] is human gastric epithelial cell line GES-1. The data set is classed as cell-based. The following applies: 200 µM.
The next data set relates to nude mice. Briefly: In vivo toxicity in nude mice (body weight, H&E staining). The following applies: 1 mg/kg i.v., one week.

Peptide text beside a SMILES is read from it. * marks the point of attachment. FITC = O=C1OC2(c3ccc(O)cc3Oc3cc(O)ccc32)c2ccc(NC(=S)*)cc21 Bounds are passed on as bounds.

Procedure for nude mice: All animal procedures were approved by the Ethics Committee of Xi’an Jiaotong University and conducted in accordance with the Helsinki Declaration (1975). Athymic nude mice (male, 4–5 weeks old, with a body weight of 20–25 g) were obtained from the Animal Experiment Center of Xi’an Jiaotong University, Xi’an, China. The SGC-7901 tumor xenografts were generated by subcutaneous injection of 5–8 × 10^6 SGC-7901 cells suspended in 200 μL culture medium into the left axilla of mice. The cells were allowed to grow for 2 weeks until tumor volume reached an estimate of 1 cm^3.
Cell Counting Kit-8 (CCK-8, Beyotime, Shanghai, China) assay and animal experiments were performed to evaluate the in vitro and in vivo toxicity of RP-1 peptide, respectively. For CCK-8 assay, 5 × 10^3 MKN-28, SGC-7901, BGC-823 and GES-1 cells in 100 μL culture medium were incubated into each well of a 96-well plate 24 h before peptide was added. All cells were incubated with FITC-RP-1 0.064 to 200 μM. After incubation for 24 h, 48 h or 72 h, 10 μL CCK-8 reagent were added into each well and further incubated for 3 h. Then, the absorbance at 450 nm was measured with a microplate reader (Bio-Rad, Hercules, CA, USA). In animal experiments, FITC-RP-1 or PBS 1 mg/kg was intravenously injected via the tail vein. The body weight of nude mice was measured every day. […]

Consider “WYPLAHWQTSWQ [scrambled control peptide … consisting of the same amino acids as RP-1, reference compound]”, for which the “binding of peptide to CD44 on the cell membrane” value in data set [1] is on record as “No fluorescent signal was detected”. Moreover, the “fluorescence on tumor cells in frozen sections” value in the data set with SGC-7901 tumor tissue is recorded as “No fluorescence signal was detected”.

Turning to `CC(C)C[C@H](NC(=O)[C@H](Cc1ccc(O)cc1)NC(=O)[C@H](CO)NC(=O)[C@H](Cc1c[nH]c2ccccc12)NC(=O)[C@@H]1CCCN1C(=O)[C@H](Cc1c[nH]cn1)NC(=O)[C@H](Cc1c[nH]c2ccccc12)NC(=S)Nc1ccc2c(c1)C(=O)OC21c2ccc(O)cc2Oc2cc(O)ccc21)C(=O)N[C@@H](Cc1c[nH]c2ccccc12)C(=O)N[C@H](C(=O)N[C@@H](CCC(N)=O)C(=O)N[C@@H](CCC(N)=O)C(=O)N[C@@H](C)C(=O)O)[C@@H](C)O` [FITC-RP-1] ({FITC}-WHPWSYLWTQQA-OH; N-terminus and C-terminus assumed), the dissociation constant (Kd) in the data set on SGC-7901 cells [2] came to 135 nM. Further, the cell viability entry in the data set on MKN-28 cells is “more than 85%”; in the data set on SGC-7901 cells [3], > 86%; in the data set with BGC-823 cells it was > 84%; in data set [4], > 91%. In the data set with nude mice, the toxicity in vivo result was “low toxicity in vivo”.

As a reminder, the Kd is the concentration at which binding is half-saturated. For orientation: cell viability means the share of living cells, or the viability signal relative to a control. High values mean less harm to the cells, low ones more harm to the cells.
